Reference: paper PMC7984218

T1: Dna2405N (UniProt P38859)
T1 sequence: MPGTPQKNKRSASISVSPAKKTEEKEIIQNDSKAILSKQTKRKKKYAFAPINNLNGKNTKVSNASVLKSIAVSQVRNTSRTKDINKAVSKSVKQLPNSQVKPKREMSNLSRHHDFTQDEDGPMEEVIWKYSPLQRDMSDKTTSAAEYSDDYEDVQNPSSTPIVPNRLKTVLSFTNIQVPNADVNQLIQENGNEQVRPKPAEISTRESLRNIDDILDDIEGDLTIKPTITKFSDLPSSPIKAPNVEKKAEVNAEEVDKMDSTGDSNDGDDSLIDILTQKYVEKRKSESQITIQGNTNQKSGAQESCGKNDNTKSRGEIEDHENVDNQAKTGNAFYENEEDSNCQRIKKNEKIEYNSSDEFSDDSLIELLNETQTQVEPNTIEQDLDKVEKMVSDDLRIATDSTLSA

T2: GST-Dna2405N-5A-His6 (UniProt P38859 1-405, K41A;R42A;K43A;K44A;K45A)
T2 sequence: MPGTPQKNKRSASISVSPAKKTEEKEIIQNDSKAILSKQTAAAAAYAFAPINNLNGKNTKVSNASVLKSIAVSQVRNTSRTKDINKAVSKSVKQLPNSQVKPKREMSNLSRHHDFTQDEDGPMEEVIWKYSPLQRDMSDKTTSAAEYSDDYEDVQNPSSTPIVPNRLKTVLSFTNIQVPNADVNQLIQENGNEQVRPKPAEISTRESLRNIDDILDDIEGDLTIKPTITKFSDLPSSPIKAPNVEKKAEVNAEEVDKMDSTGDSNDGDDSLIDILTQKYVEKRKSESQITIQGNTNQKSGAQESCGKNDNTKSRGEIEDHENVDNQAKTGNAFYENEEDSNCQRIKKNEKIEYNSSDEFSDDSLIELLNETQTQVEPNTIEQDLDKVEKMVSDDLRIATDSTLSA


Tests used:
Dna2405N = target: T1, Dna2405N; assay: competition
GST-Dna2405N-5A-His6 = target: T2, GST-Dna2405N-5A-His6; assay: EMSA

Molecule	binding signal (% inhibition of Hairpin binding) (Dna2405N)	binding result (GST-Dna2405N-5A-His6)
M13mp18 viral DNA (sscDNA)	> 80	–
Hairpin (standard 5' hairpin flap; oligos 1, 2, 5) (structured_DNA) DNA 1: GAAAACATTATTAATGGCGTCGAGCTAGGCACAAGGCGAACTGCTAACGG DNA 2: CCGTTAGCAGTTCGCCTTGTGCCTA DNA 3: GCGCATGTGCGTTCCGTCCGGTTCAAGCCGCAGCGGCTTGAACCGGACGCTCGACGCCATTAATAATGTTTTC	–	no binding
